The values that follow come from patent US20260317428 (published 2026).

In assay [1] the target is FGFR2IIIc on HEK293 cells (human, UniProt P21802). The experiment in a line: FACS. (In general: A flow cytometer gives signals particle by particle.)
In assay [2] the target is human FGFR4 (CD334) (human, UniProt P22455). The experiment in a line: ELISA. In general terms: ELISA stands for enzyme-linked immunosorbent assay.
The target of assay [3] is T1, human FGFR1b (alpha IIIb) (human, UniProt P11362).
T1 chain: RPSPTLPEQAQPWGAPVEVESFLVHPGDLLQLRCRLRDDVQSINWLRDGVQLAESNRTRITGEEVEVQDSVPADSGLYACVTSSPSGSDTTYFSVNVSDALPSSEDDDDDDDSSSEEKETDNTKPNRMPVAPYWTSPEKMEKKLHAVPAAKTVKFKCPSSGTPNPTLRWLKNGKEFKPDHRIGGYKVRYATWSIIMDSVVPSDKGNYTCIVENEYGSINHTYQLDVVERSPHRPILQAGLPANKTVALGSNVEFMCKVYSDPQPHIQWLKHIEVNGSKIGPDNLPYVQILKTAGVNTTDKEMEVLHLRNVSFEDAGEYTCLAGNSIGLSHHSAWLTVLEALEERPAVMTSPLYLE
The experiment in a line: ELISA.

Assay [4] addresses T2, human FGFR3c (alpha IIIc) (human, UniProt P22607).
T2 chain: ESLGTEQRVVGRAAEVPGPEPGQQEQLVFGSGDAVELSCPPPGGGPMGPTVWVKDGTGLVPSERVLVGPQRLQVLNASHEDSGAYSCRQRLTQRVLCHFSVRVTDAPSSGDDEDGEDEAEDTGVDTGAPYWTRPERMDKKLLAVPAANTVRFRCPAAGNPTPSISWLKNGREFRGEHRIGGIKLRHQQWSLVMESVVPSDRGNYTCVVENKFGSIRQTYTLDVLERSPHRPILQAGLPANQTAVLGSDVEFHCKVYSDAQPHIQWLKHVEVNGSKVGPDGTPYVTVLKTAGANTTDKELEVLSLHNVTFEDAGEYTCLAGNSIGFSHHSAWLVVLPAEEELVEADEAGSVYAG
The experiment in a line: ELISA.

The target in assay [5] is T3, human FGFR3b (alpha IIIb) (human, UniProt P22607).
T3 chain: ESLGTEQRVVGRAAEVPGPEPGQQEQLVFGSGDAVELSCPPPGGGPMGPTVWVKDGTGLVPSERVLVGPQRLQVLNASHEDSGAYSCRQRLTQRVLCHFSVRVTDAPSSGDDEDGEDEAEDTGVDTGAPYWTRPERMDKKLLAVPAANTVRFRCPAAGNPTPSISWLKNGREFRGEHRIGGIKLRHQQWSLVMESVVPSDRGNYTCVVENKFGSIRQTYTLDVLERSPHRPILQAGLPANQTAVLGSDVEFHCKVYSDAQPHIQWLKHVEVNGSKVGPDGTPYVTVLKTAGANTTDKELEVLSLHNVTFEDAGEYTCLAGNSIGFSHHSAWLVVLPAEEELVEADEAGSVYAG
The experiment in a line: ELISA.

The target in assay [6] is T4, human FGFR1c (FGFR1/CD331) (human, UniProt P11362).
T4 chain: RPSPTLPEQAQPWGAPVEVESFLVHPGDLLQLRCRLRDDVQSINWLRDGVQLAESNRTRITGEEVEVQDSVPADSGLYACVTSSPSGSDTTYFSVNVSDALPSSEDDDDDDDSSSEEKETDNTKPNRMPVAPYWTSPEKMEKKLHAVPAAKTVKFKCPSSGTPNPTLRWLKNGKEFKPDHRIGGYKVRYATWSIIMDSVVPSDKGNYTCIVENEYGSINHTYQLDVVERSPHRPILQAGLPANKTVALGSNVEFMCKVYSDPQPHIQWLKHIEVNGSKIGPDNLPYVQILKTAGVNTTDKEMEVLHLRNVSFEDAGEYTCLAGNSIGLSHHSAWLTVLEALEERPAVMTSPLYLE
The experiment in a line: ELISA.

In assay [7] the target is T5, human FGFR2b ECD (human, UniProt P21802).
T5 chain: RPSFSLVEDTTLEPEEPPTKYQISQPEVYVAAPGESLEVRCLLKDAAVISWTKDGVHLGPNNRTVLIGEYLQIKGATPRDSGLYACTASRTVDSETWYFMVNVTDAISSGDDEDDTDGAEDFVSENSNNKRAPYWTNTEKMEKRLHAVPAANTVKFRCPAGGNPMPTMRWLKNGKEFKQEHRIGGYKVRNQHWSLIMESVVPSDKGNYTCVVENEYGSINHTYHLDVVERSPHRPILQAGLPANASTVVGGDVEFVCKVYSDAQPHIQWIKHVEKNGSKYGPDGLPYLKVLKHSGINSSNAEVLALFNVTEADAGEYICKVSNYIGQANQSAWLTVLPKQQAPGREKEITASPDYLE
The experiment in a line: BLI.

The target in assay [8] is human FGFR2c (alpha IIIc) (human, UniProt P21802). The experiment in a line: ELISA.

Chain of human FGFR4 (CD334) (P22455 22-369): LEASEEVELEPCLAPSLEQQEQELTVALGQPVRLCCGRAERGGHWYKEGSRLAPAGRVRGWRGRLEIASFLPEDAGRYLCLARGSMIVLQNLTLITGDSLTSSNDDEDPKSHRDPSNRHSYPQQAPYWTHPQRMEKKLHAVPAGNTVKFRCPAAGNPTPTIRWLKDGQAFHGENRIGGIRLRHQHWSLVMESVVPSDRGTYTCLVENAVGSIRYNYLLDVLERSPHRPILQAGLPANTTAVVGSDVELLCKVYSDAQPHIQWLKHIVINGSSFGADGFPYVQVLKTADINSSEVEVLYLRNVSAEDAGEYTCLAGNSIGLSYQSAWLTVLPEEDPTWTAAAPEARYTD

B1: humAbA1 (antibody, V domains shown)
VH: QVQLVQSGAEVKKPGASVKVSCKASGYTFTSYNMHWVRQAPGQGLEWMGSIYPENGDTSYNQKFQDRVTLTRDTSTSTVYMELSSLRSEDTAVYYCARPFDYWGQGTLVTVSS
VL: DIQMTQSPSSLSASVGDRVTITCQASQSVGNNLAWYQQKPGKAPKLLIYYASNLYTGVPSRFSGSGSGTDFTFTISSLQPEDIATYYCQQFYSSPYTFGQGTKLEIKR
The Kd is the equilibrium constant for the complex coming apart. For B1, the binding result in assay [1], in assay [2], in assay [3], in assay [4], in assay [5] and in assay [6] was “no binding” throughout. Moreover, the binding result in assay [8] was “no binding”. For the same molecule, the Kd in assay [7] is less than 1 nM.

B2: mAb1 (antibody, V domains shown)
VH: QAYLQQSGAELVRPGASVKMSCKASGYTFTSYNMHWVKQTPRQGLEWIGSIYPENGDTSYNQKFRDKATLTVDKSSSTAYMQLSSLTSEDSAVYFCARPFDYWGQGTTLTVSS
VL: SIVMTQTPKFLPISAGDRVTMTCKASQSVGNNVAWYQQKPGQSPKLLIYYASNRYTGVPDRFTGSGSGTDFTFTISSVQVEDLAVYFCQQFYSSPYTFGSGTKLEIK
Consider B2, for which the binding result in assay [1], in assay [2], in assay [3], in assay [4], in assay [5] and in assay [6] was “no binding” each time. In assay [8], the binding result is on record as “no binding”.
